The series can be described thus: yeast display, Sf9 membrane polyspecificity reagent, FACS + sequencing; frameworks hold sequencing errors. The procedure, abridged:
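A synthetic nanobody library was expressed on Saccharomyces cerevisiae BJ5465 by galactose induction for 36–48 hours. The library was stained for 1 hour at 4 °C with 10% biotinylated, detergent-solubilized Sf9 membrane reagent and enriched with streptavidin microbeads before FACS. Low and high (top ~1%) gates were set on anti-HA fluorescence for expression and streptavidin fluorescence for reagent binding, and each polyreactivity label reflects the gate of origin.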
Turning to “QFQLVESGGGLVQAGGSLRLSCAASGFTLRTYAMGWYRQAPGKERELVAAITVSGGTYYADSVKGRFTISRDNAKYTVYLQMNSLKPEDTAVYYCTAKRFGTGFDYWGQGTQVTVSS”, the “polyreactivity (PSR sort gate)” value was “low polyreactivity”.

Turning to “QFQLVESGGGLVQAGGSLRLSCAASGIIFAQYTMGWYRQAPGKDRELGAAINRNGGSTYYADSVKGRFTISRDNAKNTVYLQMNSLKPEDTAVYYCIADALGFRYDYWGQGTQVTVSS”, the “polyreactivity (PSR sort gate)” value is recorded as “low polyreactivity”.

As for “QFQLVESGGGLVQAGGSLRLSCAASGIIFHIYAMGWYRQAPGKERELVAAISTGSSTYYADSVKGRFTISRDNAKNTVYLQMNSLKPEDTSVSYCNAVSRYLWVKGFDYWGQGTQVTVSS”, the “polyreactivity (PSR sort gate)” value is on record as “low polyreactivity”.

Turning to “QFQLVESGGGLVQAGGSLRLSCAASGITFKTYAMGCYRQAPGKERELFATINRGSRTNYADSVKGRFTISRDNAKNTVYLQMNSLKPEDTAVYYCAAHYTTFIPSPDGDYLGQGTQVTVSS”, the “polyreactivity (PSR sort gate)” value is listed as “low polyreactivity”.

Regarding “QFQLVESGGGLVQAGGSLRLSCAASGITFRDYAMGWYRQAPGKERELVAAISTRGVRTYYADSVKGRFTISRDNAKNTVYLQMNSLKPEDTAVYYCAARSVTYWWVGYEFYYWGQGTQVTVSS”, the “polyreactivity (PSR sort gate)” value was “high polyreactivity”.

For “QFQLVESGGGLVQAGGSLRLSCAASGITIRWYAMGWYRQAPGKERELVAGISSRGDSTYYADSVKGRFTISRDNAKNTVYLQMNSLKREDTAVYYCAAPGSSYRGRGYDYWGQGTQVTVSS”, the “polyreactivity (PSR sort gate)” value was “high polyreactivity”.

For the sequence “QFQLVESGGGLVQAGGSLRLSCAASGLIFRHYVMGWYRQAPGKERELVAAITSRGGTTYYADSVKGRFTISRDNEKNTVYLQMNIMKPEDTAVYYCNAVDIDPTRYEYDYWGQVTQVTVSS”, the “polyreactivity (PSR sort gate)” value is recorded as “high polyreactivity”.

As to “QFQLVESGGGLVQAGGSLRLSCAASGLIFVGNPMGWYRQAPGKERELVAAISSRGGRTYYADSVKGRFTISRDNAKNTVYLQMNSLKPEDTAVYYCIAANSQWGFEYWGQGTQVTVSS”, the “polyreactivity (PSR sort gate)” value was “high polyreactivity”.

For “QFQLVESGGGLVQAGGSLRLSCAASGLTFSRYAMGWYIQAPGKERELVAAITCSGSSTYYSHSVKGRFTISRDNAKNNVYLQMNSLKPEDTAVYYCAARYGYSRGTYYRSDYWGQGTQVTVSS”, the “polyreactivity (PSR sort gate)” value is given as “high polyreactivity”.

For “QFQLVESGGGLVQAGGSLRLSCAASGNILPAYAMGLYRQAPGKERELVAAISKSGGRTYYADSVKGRFTISLDNAKNTVYLQMNSLKPEDTAVYYALLTVLRAVPYTVRYDYWGQGTQVNVSS”, the “polyreactivity (PSR sort gate)” value is on record as “high polyreactivity”.

Take “QFQLVESGGGLVQAGGSLRLSCAASGRIFDLNAMGWYRQAPGKERELVAAITWSGDSTYYADSVKGRITISRDNAKNTVYLQLNSLKPEDTAVYYCAAASRTSYSWVDYEFDYWGQGTQVTVSS”: the “polyreactivity (PSR sort gate)” value was “low polyreactivity”.

For the sequence “QFQLVESGGGLVQAGGSLRLSCAASGRIFKPNAMGWYRQAPGKERELVAAIRYSTGRTYYADSVKGRFTISRDNAKNTVYLQMNSLKPEDTAVYYCAARRVEYYGSQNGYWGQGTQVTVSS”, the “polyreactivity (PSR sort gate)” value is “high polyreactivity”.

“QFQLVESGGGLVQAGGSLRLSCAASGRIFVLNAMGWYRQAPGKERELVAAISGSGSRTYYADSVKGRFTISRDNAKNTVYLQMNSLNPEDTAVYYCNNVSRRSEHTYDYWGQGTQVTVSS”: the “polyreactivity (PSR sort gate)” value is given as “high polyreactivity”.

Regarding “QFQLVESGGGLVQAGGSLRLSCAASGRIFVYYMGWYRQAPRKERELVAALSFGGGSTYYADSVKGRFTISRDNAKNTVYLQMNSLKPEDNAVYYCNADGDDLDWNYYLVQYDYWGQGTQVTVSS”, the “polyreactivity (PSR sort gate)” value is reported as “low polyreactivity”.

Turning to “QFQLVESGGGLVQAGGSLRLSCAASGRIFYRYAMGWYIQAPGKERELVAAITSGTSTNYADSVKGRFTISRDNAKNTVYVQMNSLKPEDTAVYYCAKRYYWKYAEYDYWGQGTLVTVSS”, the “polyreactivity (PSR sort gate)” value is “high polyreactivity”.

“QFQLVESGGGLVQAGGSLRLSCAASGRIFYYNAMGWYRQAPGKERELVASITGSGGSTYYADSVKGRFTISRDNAKNTVYLQMNSLKPEDTAVYYCAKREYLYPYYYVAKYDYWGQGTQVTVSS”: the “polyreactivity (PSR sort gate)” value was “low polyreactivity”.

“QFQLVESGGGLVQAGGSLRLSCAASGRTFGFNAMGWYRQAPGKERELVAALSGSGGRTYYADSVQGRFTISRDNAKNTVYLQMNSLKPEDTAVYYCAAGARRGGSGDWGQGTQVTVSS”: the “polyreactivity (PSR sort gate)” value was “high polyreactivity”.

As to “QFQLVESGGGLVQAGGSLRLSCAASGRTFPWYAMGWYRQEPGKDRELVAAISWTGGSTYYADSVKGRFTISRDNAKNTVYLQMNSLKPEDTAFYYCAASPWYLKYEYWGQGTQVTVSW”, the “polyreactivity (PSR sort gate)” value was “low polyreactivity”.

For the sequence “QFQLVESGGGLVQAGGSLRLSCAASGRTFRGYAMGWYRQAPGKERELVAAITWRGGSTYYADSVKGRFTISRDNAKNTVYLQMNSLKPEDTAVYYCNTLVWSYLGGYYSRFDYWGQGTQVTVSS”, the “polyreactivity (PSR sort gate)” value is “high polyreactivity”.

“QFQLVESGGGLVQAGGSLRLSCAASGRTFRYYAMGGYIQAPGKERELVGAITTGSSTYYADSVKGRFTISRDNAKNTVYLQMNSLKTEDTAVYYCHVFQGTRYGYWGQGTKVTVSS”: the “polyreactivity (PSR sort gate)” value is listed as “low polyreactivity”.

Take “QFQLVESGGGLVQAGGSLRLSCAASGRTFRYYTMGWYRQAPGKEREFVAVITVNGGSTYYADSVKGRFTISRDNAKNTVYLQMNSLKPEDTAVYYCAKSYGSRHRYWPLYYWGQGTQVTVSS”: the “polyreactivity (PSR sort gate)” value is on record as “high polyreactivity”.

On to “QFQLVESGGGLVQAGGSLRLSCAASGRTFVPYVMGWYRQAPGKERELVASITSGGSTYYADSVKGRFTISRDNAKNTVYLQMNSLNPEDTAVYYCATRQSAERWGYYYWGQGTQVTVSS”, for which the “polyreactivity (PSR sort gate)” value is listed as “low polyreactivity”.

Take “QFQLVESGGGLVQAGGSLRLSCAASGRTFYVNAMGWYRPSPGKERELVAGISFSDGSTYYADSVKGRFTISRDNAKNTVYLQMNSLKPEDTAVYYCATVGAFDIYYGYGYWGQGTQVTVSS”: the “polyreactivity (PSR sort gate)” value was “low polyreactivity”.

For “QFQLVESGGGLVQAGGSLRLSCAASGRTFYYYVMGWYRQAPGKERELVAAITIRGGSTYYADSVKGRFTISRDNAKNTVYLQMNSLKPEDTAVYYCNARGGSSTYGNYYWGQGTQVTVSS”, the “polyreactivity (PSR sort gate)” value was “low polyreactivity”.

For “QFQLVESGGGLVQAGGSLRLSCAASGSIFDAYAMGWYRQAPGKERELVPAITYSGGSTYYADSVKGRFTISRDNAKNTVYLQMNSLKPEDTAVYYCNTDSRVRTWFRAFTFDSWGQGTQVTVSS”, the “polyreactivity (PSR sort gate)” value is “low polyreactivity”.

On to “QFQLVESGGGLVQAGGSLRLSCAASGSIFDRNAMGWYRQAPGKERELVAAITSGGSTYYADSVKGRFTISRDNAKNTVYLQMNSLKPEDNAVYYCNADTDPPVPLYYWGQGTQVTVSS”, for which the “polyreactivity (PSR sort gate)” value is given as “low polyreactivity”.

Regarding “QFQLVESGGGLVQAGGSLRLSCAASGSIFFYYAMGWYRQAPGKERELVAAITFTGGSTYYADSVKGRFTISRDNAKNTVYLQMNSLKPEDTAVYYCADYWYYGDEYVYWGQGTQVTVSS”, the “polyreactivity (PSR sort gate)” value is on record as “high polyreactivity”.

On to “QFQLVESGGGLVQAGGSLRLSCAASGSIFIYYAMGWYRQAPGKEREFVAAITRSGGSTFYADSVKGRFTISRDNAKNTVYLQMNSLKPEDTAVYYCATSYEGYYSIIGNKYDYWGQGTQVTVSS”, for which the “polyreactivity (PSR sort gate)” value is “high polyreactivity”.

“QFQLVESGGGLVQAGGSLRLSCAASGSIFLWYAMGWYRQAPGKERELVAVITSSGGTTYYADSVKGRFTISRDNAKNTVYLQMNCMKPEDNAVYYSAADFYRHPPGSLTKLYYYWGQGTQVTVSS”: the “polyreactivity (PSR sort gate)” value was “low polyreactivity”.

Turning to “QFQLVESGGGLVQAGGSLRLSCAASGSIFSVYAMGWYRQAPGKERELVAAITNRGGSTYYADSVKGRFTISRDNAKNTVYLQMNSLKPEDTAVYYCARGPVSYGGLYDYWGQGTQVIVSS”, the “polyreactivity (PSR sort gate)” value is given as “low polyreactivity”.

Regarding “QFQLVESGGGLVQAGGSLRLSCAASGSIFSYNAMGWYIQAPGKERELVASITSGGRTYYADSVKGRFTISRDNAKNTVYLQMYSLKPEDTAVYYCAAYQTGLHGFYSWGQGTQVTVSS”, the “polyreactivity (PSR sort gate)” value is listed as “high polyreactivity”.

“QFQLVESGGGLVQAGGSLRLSCAASGSIFVLYAMGWYRQAPGKERELVAAITSAGSTYYADSVKGRFTISRDNAKNTVYLQMNSLKPEDTAVYYCAAGFYGYARHTWYNDWGQGTQVTVSS”: the “polyreactivity (PSR sort gate)” value is “high polyreactivity”.

“QFQLVESGGGLVQAGGSLRLSCAASGSIFYYNAMGWYRQAPGKEPELVAAINSGGTTYYADSVKGRFTISRDNAKNTVYVLMNSLKPEDTAVYYCAARTTRRSRYKYDYWGQGTQVSVSS”: the “polyreactivity (PSR sort gate)” value is listed as “high polyreactivity”.

For the sequence “QFQLVESGGGLVQAGGSLRLSCAASGSIIGPYAMGWYRQAPVKERELVAVISSGDSKNYADSVKGRFTISRDNAKNTVYLQMNSLKQEDNEVSYCRCKYDVAHHFWVYRYDYWGHGTQVTVSS”, the “polyreactivity (PSR sort gate)” value is given as “low polyreactivity”.

With “QFQLVESGGGLVQAGGSLRLSCAASGSTFIYYAMGWYRQAPGKDRELVAAISGCGASTYYADSVKGGFTISRDNAKNTVYLQMNSLKPEDTAVYYCHFYRWRGYDYWGQGTQVTVSS”, the “polyreactivity (PSR sort gate)” value is listed as “high polyreactivity”.

For “QFQLVESGGGLVQAGGSLRLSCAASGSTFKYSAMGWYRQAPGKERELVAIIRSGGRTNYADSVKGRFTISRDNAKNTVYLQMNSLKPEDTAVYYCNARYGRYYGAYEYWGQGTQVTVSS”, the “polyreactivity (PSR sort gate)” value was “high polyreactivity”.

As for “QFQLVESGGGLVQAGGSLRLSCAASGSTFPLYAMGWYRPAPGKERELVAAITSGGGNTYYADSVKGRFTISRDNAKNTVYLQMNSLKPEDTAVYSCAAVGGYKSYYSYEYDYWGQGTQVTVSS”, the “polyreactivity (PSR sort gate)” value is reported as “low polyreactivity”.

Consider “QFQLVESGGGLVQAGGSLRLSCAASGSTFTNYAMGWYRQAPGKEREFVAAITFRGGRTYYADSVKGRFTISRHNAKNTVYLQLNSLKPEDTAVYYCNKRTSPKRFDYWGQGTQVTVSS”, for which the “polyreactivity (PSR sort gate)” value is “high polyreactivity”.

Consider “QFQLVESGGGLVQAGGSLRLSCAASGTFGSYAMGWYRHAPGKERELVASISGTGGDTYYADSVKGRFTISRDNAKNTVYLQMNSLKPEDTAVYYCAARWSRYWYLGSWLYDYWGQGSQVTVSS”, for which the “polyreactivity (PSR sort gate)” value is “high polyreactivity”.

As to “QFQLVESGGGLVQAGGSLRLSCADSGFIFFSNARPWYRHAPGKDRELVAVIDRATSTYYADSVKGRFTISRDNAKYTVYLQMNSLKPEDTAVYYCNADGEEVYDCNYFLSFKGDYWGQGTQVTVSS”, the “polyreactivity (PSR sort gate)” value was “low polyreactivity”.

Regarding “QFQLVESGGGLVQAGGTLRLSCAPSGFTFTLNPLGWYRQAPGKERQLVATIDWSGTSTYYADSVKGRFRISRDKAKNTFYLQMNCMKPVDTAVYYCARVYQGYPGFYDGEYWGQGNQVTVSS”, the “polyreactivity (PSR sort gate)” value is on record as “low polyreactivity”.

For the origin of these results see the nanobody polyreactivity screen of Harvey et al. (2022).
